Assay results taken from patent US20100086958A1, “NOVEL ENZYME” (priority 2008, published 2010).

What was measured:
[1] = Steady state kinetics for NADP^+ (FDH-catalysed formate oxidation); assay type: biochemical
Protocol: (§1) BcenFDH1 (Bsp184FDH) and BspFDH2 (Bsp383FDH) catalyzed oxidation of formate to CO2 was monitored by UV/Vis spectrophotometry in a 96-well plate format. A series of eight solutions of formate (0-200 mM) were prepared by successive dilutions of a stock solution of 0.5 M sodium formate in 0.1 M sodium phosphate buffer, pH 7.0. From this series, 170 μL was transferred into wells of the 96-well plate. 10 μL of the FDHs from a stock solution (64.1 μM for BcenFDH1 (Bsp184FDH) and 78.0 μM for BspFDH2 (Bsp383FDH)) were added into each well and equilibrated for 3 min at 30° C. The reaction was initiated by addition of 20 μL of NAD^+ or NADP^+ solution from a freshly prepared stock (10 mM) using an 8-channel pipette. The plate was then immediately placed into the plate reader. The plate was shaken for 5 s to ensure thorough mixing, and then time-based measurements were recorded every 15 s for 10 min. The rate of formate oxidation was calculated using an extinction coefficient of 3.38 mM^−1 (for 200 μL), which was determined using NADH standards. Km and Vmax values were obtained by non-linear regression to the Michaelis-Menten equation (Eq.1 below) using Origin v7 (Microcal Software Inc.).
(§2) Similar procedure were used for determination of Michaelis-Menten parameters for NAD^+ and NADP^+. A series of eight solutions of cofactor (0-75 mM) were prepared by successive dilutions of stock solutions. […] of sodium formate solutions (180 mM in well) were transferred into wells of the 96-well plate. 10 μL of the FDHs from a stock solution (64.1 μM for BcenFDH1 (Bsp184FDH) and 78.0 μM for BspFDH2 (Bsp383FDH)) were added into each well and equilibrated for 3 min at 30° C. The reaction was initiated by addition of 20 μL of NAD^+ or NADP^+ solutions using an 8-channel pipette. The plate was then immediately placed into the plate reader. The plate was shaken for 5 s to ensure thorough mixing, and then time-based measurements were recorded every 15 s for 10 min. The rate of formate oxidation was calculated using an extinction coefficient of 3.38 mM^−1 (for 200 μL), which was determined using NADH standards. Km and Vmax values were obtained by non-linear regression to the Michaelis-Menten equation as before.

[2] = Steady state kinetics for NAD^+ (FDH-catalysed formate oxidation); assay type: biochemical; conditions: cofactor NAD^+, 0.18M formate
Protocol: as §1, §2

[3] = Steady state kinetics for formate oxidation; assay type: biochemical
Protocol: as §1

[4] = Assay of enzyme activity (specific activity, U/mg); assay type: biochemical; conditions: unit = μmol formate oxidized per min in the presence of co-factor; This work
Protocol: The reaction was initiated by addition of NAD^+. The total volume of the reaction mixture was 1 mL. Specific activity (U/mg enzyme) was defined as number of μmols of product formed per mg enzyme per minute.

[5] = pH profile determination of FDH-catalysed formate oxidation; assay type: biochemical; conditions: pHs as low 4 or as high as 10.5
Protocol: The pH profiles for BcenFDH1 (Bsp184FDH) and BspFDH2 (Bsp383FDH) catalyzed formate oxidation, shown in FIG. 13(a) and (b), were investigated by Uv/Vis spectrophotometry in a 96-well plate format. […] From this series, 170 μL was transferred into wells of the 96-well plate. 10 μL of the FDHs from a stock solution solution (64.1 μM for BcenFDH1 (Bsp184FDH) and 78.0 μM for BspFDH2 (Bsp383FDH)) were added into each well and equilibrated for 3 min at 30° C. The reaction was initiated by addition of 20 μL of NAD^+ solution from a freshly prepared stock (10 mM) using an 8-channel pipette. The plate was then immediately placed into the plate reader. The plate was shaken for 5 s to ensure thorough mixing, and then time-based measurements were recorded every 15 s for 10 min. The rate of formate oxidation was calculated using an extinction coefficient of 3.38 mM^−1 (for 200 μL).

[6] = Thermal stability study (remaining activity after incubation); assay type: physicochemical
Protocol: FIGS. 19 and 20—show the effect of temperature on the stability of the Bsp184FDH and Bsp383FDH enzymes. In FIG. […] In FIG. 20 (1) Bsp184FDH (2.1 mg/mL) and (2) Bsp383FDH (1.5 mg/mL) were incubated at 60° C. and 70° C. for 48 hours period in a similar way. Remaining activities were assayed under standard assay conditions and were expressed as the percentage of activities.
Thermal stability for purified wild-type BcenFDH1 (Bsp184FDH) and BspFDH2 (Bsp383FDH) catalyzed formate oxidation were investigated by Uv/V is spectrophotometry in a 96-well plate format. The results are illustrated in FIGS. 19 and 20. […] In addition, time based-thermal stability for purified wild-type BcenFDH1 (Bsp184FDH) and BspFDH2 (Bsp383FDH) catalyzed formate oxidation were also investigated at 60° C. and 70° C. over 48 hours in a similar way. The samples were spun down briefly to remove any precipitations before use. 10 μL of heat-treated BcenFDH1 and BspFDH2 were added into each well and equilibrated for 3 min at 30° C. after adding 170 μL of 200 mM sodium formate (dissolving in 50 mM sodium phosphate buffer, pH 7.0.) The reaction was initiated by addition of 20 μL of NADP^+ solution from a freshly prepared stock of 20 mM using an 8-channel pipette. The plate was then immediately placed into the plate reader. The plate was shaken for 5 seconds to ensure thorough mixing. Time-based measurements were recorded every 10 s for 10 min. The rate of formate oxidation was calculated using the absorption coefficient of 3.38 mM^−1 (for 200 μL).

B1: Bsp184FDH: wild type FDH from Burkholderia cenocepacia PC184, Seq ID No: 2, C-terminal His-tagged (protein, listed as Burkholderia cenocepacia)
chain: MATVLCVLYPDPVDGYPPRYVRDTIPVITHYADGQTAPTPAGPPGFRPGELVGSVSGALGLRGYMEAHGHTLIVTSDKDGPDSEFERRLPEADVVISQPFWPAYLSAERIARAPKLKLALTAGIGSDHVDLDAAARARITVAEVTGSNSISVAEHVVMTTLALVRNYLPSHAVAQQGGWNIADCVSRSYDVEGMHFGTVGAGRIGLAVLRRLQPFGLQLHYTQRHRLDASIEQALALTYHADVASLASAVDIVNLQIPLYPSTEHLFDAAMIARMKRGAYLINTARAKLVDRDAVVNALTSGHLAGYGGDVWFPQPAPADHPWRTMPFNGMTPHISGTSLSAQARYAAGTLEILQCWFDGRPIRNEYLIVDGGTLAGTGAQSYRLT
modifications: C-terminal His tag
[1]; cofactor NADP^+, 0.18M formate
  Km: 1.1 ± 0.1 mM
  kcat NADP^+: 184 ± 5 min⁻¹
[1]; relative to CmetFDH
  cofactor preference for NADP^+, times greater than those of known FDHs such as CmetFDH: 10^6 times
[2]
  Km: 15 ± 4 mM
  kcat NAD^+: 34 ± 7 min⁻¹
[3]; formate oxidation with NADP^+
  kcat: 132.44 ± 15.32 min⁻¹
[3]; formate oxidation with NAD^+
  Km: 99.2 ± 7.11 mM
  kcat: 20.40 ± 0.74 min⁻¹
[4]
  activity with NADP^+: 3.12 U/mg
  activity with NAD^+: 0.48 U/mg
[5]
  activity at extreme pH: highly active
[6]
  temperature at which the enzymes denature: 80 °C
[6]; 55° C. for 2 hours
  activity lost upon incubation: no activity was lost
[6]; room temperature for weeks
  stability at room temperature: stable
